In patent US8084213, “Selection” (Domantis Limited):

What was measured:
scArc-Vk(E5)-HA = scArc-Vk(E5)-HA (Phage P22 / human Vk); assay: co-capture PCR; conditions: tags: C-terminal Vk(E5) dAb fusion, chain copies: 2 scArc per operator (stated)
Description: Tubes from Strep Thermofast 96-well plates are coated by applying 2 µl of 0.05 mg/ml biotinylated rat anti-HA mAb (clone 3F10, Roche), 0.2 µl of 0.5 mg/ml biotinylated protein L (Pierce), 1 µl of biotinylated 1 mg/ml β-galactosidase or 0.1 µl of 5 mg/ml biotinylated BSA (Sigma) respectively in 50 µl aliquots of PBS and incubating for 3 hours at room temperature. The monoclonal high-affinity α-HA mAb 3F10 recognises the C-terminal HA tag, β-galactosidase and protein L can be expected to interact with the $V_\kappa$(E5) light chain domain, while BSA serves as the negative control. At the end of the incubation the coating solution is removed and the first blocking solution consisting of 150 µl of 10 ng/ml biotinylated BSA (Sigma) in PBS is added to the wells and incubated for 15 minutes. At the end of the incubation the wells are washed three times with 150 µl of PBS and blocked additionally for 30 min at room temperature with buffer C+.
25 µl S30 in vitro translation reactions (EcoPro T7, Novagen) are assembled according to the manufacturer's instructions and supplemented with 1.5 µl of 1.7 mM PCR-amplified template in 0.1 mg/ml RNA and 0.75 µl of 100 mM oxidized glutathione. […]
The PCR amplification products are analysed by 1% agarose gel electrophoresis in TAE in the presence of ethidium bromide and imaged using GeneGeius Bio Imaging System (Syngene). […]

[1] = target: T1, scArc-HA (pIE2 series, single-chain Arc repressor dimer) (Phage P22); assay: co-capture of DNA on anti-HA 3F10 surface, PCR detection; buffer C+ 100 mM KCl, 5 mM MgCl2, room temp; conditions: tags: C-terminal HA; chain copies: 2 scArc per operator (stated)
T1 chain: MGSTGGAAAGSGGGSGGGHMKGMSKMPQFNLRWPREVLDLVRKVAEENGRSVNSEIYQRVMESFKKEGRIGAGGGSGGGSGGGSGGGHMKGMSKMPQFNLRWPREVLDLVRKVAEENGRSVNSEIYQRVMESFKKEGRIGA
Description: In a typical solution expression experiment 1 μl of 1.7 nM template in 0.2 mg/ml tRNA is added to 25 μl EcoPro T7 in vitro translation mix Novagen), supplemented with 0.75 μl of 100 mM oxidized glutathione (Sigma), and incubated at 25° C. for four hours. During the translation reaction the streptavidin-coated PCR tubes, cut from Strep Thermofast 96-well plates (Abgene), are first incubated at room temperature for three hours with 50 μl of at least 40 nM biotinylated target protein in PBS. The coating buffer is thereafter removed and any remaining free biotin-binding sites are blocked with a 15 min pulse of 50 μg/ml biotinylated BSA in PBS. The pre-coated wells are thereafter three times washed with PBS and then filled with 100 μl of binding buffer C+ (100 mM KCl, 20 mM Tris, 5 mM MgCl_2, 0.05% Tween 20, 0.05 mM EDTA, 1% BSA). Upon completion of the translation reaction the products are diluted in Buffer C+ and applied to the pre-coated and blocked PCR tubes, allowed to bind for 30 min at room temperature and washed 4 times with 150 μl of Buffer C+. […]

B1: Arc operator, one copy, on linear genetic element (dsDNA)
DNA 1: ATGATAGAAGCACTCTACTAT
DNA 2: ATAGTAGAGTGCTTCTATCAT
scArc-Vk(E5)-HA
  binding result: binds
[1]
  binding result: binds
